Experiment [1] deals with T1, STAMP amino terminal fragment (N623), in vitro translated (human, UniProt Q6EMB2 5-627, [35S]methionine labeled).
T1 sequence: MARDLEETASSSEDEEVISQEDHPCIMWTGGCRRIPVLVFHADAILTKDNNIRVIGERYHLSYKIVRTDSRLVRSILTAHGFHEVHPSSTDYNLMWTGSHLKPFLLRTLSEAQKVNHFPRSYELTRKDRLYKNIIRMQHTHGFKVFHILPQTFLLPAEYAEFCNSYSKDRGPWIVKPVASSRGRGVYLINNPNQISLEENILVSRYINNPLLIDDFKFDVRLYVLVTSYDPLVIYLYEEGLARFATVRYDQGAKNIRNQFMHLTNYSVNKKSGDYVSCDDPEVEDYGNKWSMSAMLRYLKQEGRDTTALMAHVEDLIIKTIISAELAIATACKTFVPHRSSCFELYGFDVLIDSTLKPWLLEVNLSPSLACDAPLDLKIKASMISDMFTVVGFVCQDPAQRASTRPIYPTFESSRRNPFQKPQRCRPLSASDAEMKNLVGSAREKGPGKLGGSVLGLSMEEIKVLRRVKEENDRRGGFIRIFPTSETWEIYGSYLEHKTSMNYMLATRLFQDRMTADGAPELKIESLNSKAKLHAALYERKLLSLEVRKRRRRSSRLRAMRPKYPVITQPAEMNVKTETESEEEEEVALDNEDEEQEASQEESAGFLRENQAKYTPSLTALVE
Kind of experiment: GST pulldown, autoradiography (FIG. 7A).
Procedure: (§1) The mixture was centrifuged (12,000×g), the supernatant was discarded, and the pellet was washed with phosphate-buffered saline (3×1 ml). Each 20-μl sample of immobilized GST or GST-chimera was then incubated overnight with 10 μl of ³⁵S-labeled in vitro translation product. The matrix was washed with phosphate-buffered saline (4×1 ml). The immobilized proteins were removed from the beads by heating at 90° C. for 5 min in 20 μl of 2×SDS loading buffer. The proteins were separated on 8-10% SDS-PAGE gels and detected by radio-autoradiography.

For experiment [2], the target named is T2, STAMP C-terminal fragment (834C), in vitro translated (human, UniProt Q6EMB2 838-1281, [35S]methionine labeled).
T2 sequence: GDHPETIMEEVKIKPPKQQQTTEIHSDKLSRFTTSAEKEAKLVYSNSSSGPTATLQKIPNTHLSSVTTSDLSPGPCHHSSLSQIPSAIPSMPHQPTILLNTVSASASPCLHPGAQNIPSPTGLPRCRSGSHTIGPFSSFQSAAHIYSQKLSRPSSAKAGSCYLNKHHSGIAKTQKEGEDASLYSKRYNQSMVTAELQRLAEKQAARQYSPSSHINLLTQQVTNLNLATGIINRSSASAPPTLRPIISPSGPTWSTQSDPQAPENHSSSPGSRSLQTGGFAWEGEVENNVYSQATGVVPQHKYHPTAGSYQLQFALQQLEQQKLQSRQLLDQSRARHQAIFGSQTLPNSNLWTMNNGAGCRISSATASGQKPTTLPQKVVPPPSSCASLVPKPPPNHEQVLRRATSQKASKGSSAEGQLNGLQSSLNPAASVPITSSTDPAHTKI
Kind of experiment: GST pulldown, autoradiography (FIG. 7A).
Procedure: as §1

Another experiment has as its target T3, GAL/STAMP(834C) (human, UniProt P04386 1-147 (Saccharomyces cerevisiae entry)).
T3 construct: domain: GAL-DBD; Mammalian two-hybrid construct; also called GAL fused to STAMP834C
Kind of experiment: mammalian two-hybrid (data not shown).

For a further experiment, the target named is T4, GAL/STAMP(N834) (human).
T4 construct: domain: GAL-DBD; Mammalian two-hybrid construct; also called GAL/N834
The experiment in a line: mammalian two-hybrid ±1 µM Dex (FIG. 6B).

The target of experiment [3] is transcription intermediary factor-2 (TIF2), full length (human, UniProt Q15596 1-1464). The experiment in a line: cell-based or functional assay.
The target in a further experiment is T5, GAL/STAMP(623-834) (human).
T5 construct: domain: GAL-DBD; Expressed in CV-1 cells for the mammalian two-hybrid assay; also called Gal/6-6CL1
The experiment in a line: mammalian two-hybrid in CV-1 cells.

This is an account of results in patent US20070128627A1 (US Dept. of Health and Human Services, published 2007).

B1: GST/TIF2.4 (other)
chain: ERADGQSRLHDSKGQTKLLQLLTTKSDQMEPSPLASSLSDTNKDSTGSLPGSGSTHGTSLKEKHKILHRLLQDSSSPVDLAKLTAEATGKDLSQESSSTAPGSEVTIKQEPVSPKKKENALLRYLLDKDDTKDIGLPEITPKLERLDSKTDPASNTKLIAMKTEKEEMSFEPGDQPGSELDNLEEILDDLQNSQLPQLFPDTRPGAPAGSVDKQAIINDLMQLTAENSPVTPVGAQKTALRISQSTFNNPRPGQLGRLLPNQNLPLDITLQSPTGAGPFPPIRNSSPYSVIPQPGMMGNQGMIGNQGNLGNSSTGMIGNSASRPTMPSGEWAPQSSAVRVTCAATTSAMNRPVQGGMIRNPAASIPMRPSSQPGQRQTLQSQVMNIG
notes: Bacterially expressed, immobilized on glutathione-Sepharose beads; The text gives no limits for TIF2.4, so the whole TIF2 entry is named; not shown: glutathione S-transferase (GST) of a pGEX plasmid
With B1, the binding result in experiment [1] and in experiment [2] was “no binding” in each case.

B2: GR C-terminal half (407C) (receptor, UniProt P06536 407-795, looked up, not shown: large carriers)
chain: SVFSNGYSSPGMRPDVSSPPSSSSAATGPPPKLCLVCSDEASGCHYGVLTCGSCKVFFKRAVEGQHNYLCAGRNDCIIDKIRRKNCPACRYRKCLQAGMNLEARKTKKKIKGIQQATAGVSQDTSENPNKTIVPAALPQLTPTLVSLLEVIEPEVLYAGYDSSVPDSAWRIMTTLNMLGGRQVIAAVKWAKAILGLRNLHLDDQMTLLQYSWMFLMAFALGWRSYRQSSGNLLCFAPDLIINEQRMSLPCMYDQCKHMLFVSSELQRLQVSYEEYLCMKTLLLLSSVPKEGLKSQELFDEIRMTYIKELGKAIVKREGNSSQNWQRFYQLTKLLDSMHEVVENLLTYCFQTFLDKTMSIEFPEMLAEIITNQIPKYSNGNIKKLLFHQK
notes: also called GR407C
With B2, in the experiment with GAL/STAMP(834C), the binding result is “no binding”.

B3: VP16/GR (receptor)
chain: MDSKESLAPPGRDEVPGSLLGQGRGSVMDFYKSLRGGATVKVSASSPSVAAASQADSKQQRILLDFSKGSTSNVQQRQQQQQQQQQQQQQQQQQQQPDLSKAVSLSMGLYMGETETKVMGNDLGYPQQGQLGLSSGETDFRLLEESIANLNRSTSVPENPKSSTSATGCATPTEKEFPKTHSDASSEQQNRKSQTGTNGGSVKLYPTDQSTFDLLKDLEFSAGSPSKDTNESPWRSDLLIDENLLSPLAGEDDPFLLEGNTNEDCKPLILPDTKPKIKDTGDTILSSPSSVALPQVKTEKDDFIELCTPGVIKQEKLGPVYCQASFSGTNIIGNKMSAISVHGVSTSGGQMYHYDMNTASLSQQQDQKPVFNVIPPIPVGSENWNRCQGSGEDSLTSLGALNFPGRSVFSNGYSSPGMRPDVSSPPSSSSAATGPPPKLCLVCSDEASGCHYGVLTCGSCKVFFKRAVEGQHNYLCAGRNDCIIDKIRRKNCPACRYRKCLQAGMNLEARKTKKKIKGIQQATAGVSQDTSENPNKTIVPAALPQLTPTLVSLLEVIEPEVLYAGYDSSVPDSAWRIMTTLNMLGGRQVIAAVKWAKAILGLRNLHLDDQMTLLQYSWMFLMAFALGWRSYRQSSGNLLCFAPDLIINEQRMSLPCMYDQCKHMLFVSSELQRLQVSYEEYLCMKTLLLLSSVPKEGLKSQELFDEIRMTYIKELGKAIVKREGNSSQNWQRFYQLTKLLDSMHEVVENLLTYCFQTFLDKTMSIEFPEMLAEIITNQIPKYSNGNIKKLLFHQK
notes: Assayed with and without 1 µM Dex
In the case of B3, in the experiment with GAL/STAMP(N834), the binding result is given as “no binding”.

B4: full length STAMP (SRC-1 and TIF2 Associated Modulatory Protein) (other)
chain: MARDLEETASSSEDEEVISQEDHPCIMWTGGCRRIPVLVFHADAILTKDNNIRVIGERYHLSYKIVRTDSRLVRSILTAHGFHEVHPSSTDYNLMWTGSHLKPFLLRTLSEAQKVNHFPRSYELTRKDRLYKNIIRMQHTHGFKVFHILPQTFLLPAEYAEFCNSYSKDRGPWIVKPVASSRGRGVYLINNPNQISLEENILVSRYINNPLLIDDFKFDVRLYVLVTSYDPLVIYLYEEGLARFATVRYDQGAKNIRNQFMHLTNYSVNKKSGDYVSCDDPEVEDYGNKWSMSAMLRYLKQEGRDTTALMAHVEDLIIKTIISAELAIATACKTFVPHRSSCFELYGFDVLIDSTLKPWLLEVNLSPSLACDAPLDLKIKASMISDMFTVVGFVCQDPAQRASTRPIYPTFESSRRNPFQKPQRCRPLSASDAEMKNLVGSAREKGPGKLGGSVLGLSMEEIKVLRRVKEENDRRGGFIRIFPTSETWEIYGSYLEHKTSMNYMLATRLFQDRMTADGAPELKIESLNSKAKLHAALYERKLLSLEVRKRRRRSSRLRAMRPKYPVITQPAEMNVKTETESEEEEEVALDNEDEEQEASQEESAGFLRENQAKYTPSLTALVENTPKENSMKVREWNNKGGHCCKLETQELEPKFNLMQILQDNGNLSKMQARIAFSAYLQHVQIRLMKDSGGQTFSASWAAKEDEQMELVVRFLKRASNNLQHSLRMVLPSRRLALLERRRILAHQLGDFIIVYNKETEQMAEKKSKKKVEEEEEDGVNMENFQEFIRQASEAELEEVLTFYTQKNKSASVFLGTHSKISKNNNNYSDSGAKGDHPETIMEEVKIKPPKQQQTTEIHSDKLSRFTTSAEKEAKLVYSNSSSGPTATLQKIPNTHLSSVTTSDLSPGPCHHSSLSQIPSAIPSMPHQPTILLNTVSASASPCLHPGAQNIPSPTGLPRCRSGSHTIGPFSSFQSAAHIYSQKLSRPSSAKAGSCYLNKHHSGIAKTQKEGEDASLYSKRYNQSMVTAELQRLAEKQAARQYSPSSHINLLTQQVTNLNLATGIINRSSASAPPTLRPIISPSGPTWSTQSDPQAPENHSSSPGSRSLQTGGFAWEGEVENNVYSQATGVVPQHKYHPTAGSYQLQFALQQLEQQKLQSRQLLDQSRARHQAIFGSQTLPNSNLWTMNNGAGCRISSATASGQKPTTLPQKVVPPPSSCASLVPKPPPNHEQVLRRATSQKASKGSSAEGQLNGLQSSLNPAASVPITSSTDPAHTKI
For the molecule B4, in experiment [3], the “fold repression by Dex of the PMA-induced AP-1/Luc reporter in U2OS.rGR cells (STAMP added, no TIF2 added)” value was found to be 16 fold and the “fold repression by Dex of the PMA-induced AP-1/Luc reporter in U2OS.rGR cells (STAMP plus TIF2 added)” value is approximately 31 fold.

B5: VP16/TIF2(1140C) (other)
chain: QAQMAQGSYSPMQDPNFHTMGQRPSYATLRMQPRPGLRPTGLVQNQPNQLRLQLQHRLQAQQNRQPLMNQISNVSNVNLTLRPGVPTQAPINAQMLAQRQREILNQHLRQRQMHQQQQVQQRTLMMRGQGLNMTPSMVAPSGMPATMSNPRIPQANAQQFPFPPNYGISQQPDPGFTGATTPQSPLMSPRMAHTQSPMMQQSQANPAYQAPSDINGWAQGNMGGNSMFSQQSPPHFGQQANTSMYSNNMNINVSMATNTGGMSSMNQMTGQISMTSVTSVPTSGLSSMGPEQVNDPALRGGNLFPNQLPGMDMIKQEGDTTRKYC
Consider B5, for which the binding result in the experiment with GAL/STAMP(623-834) is “no binding”.

B6: GR N-terminal half (N523) (receptor, UniProt P06536 1-523, looked up, not shown: large carriers)
chain: MDSKESLAPPGRDEVPGSLLGQGRGSVMDFYKSLRGGATVKVSASSPSVAAASQADSKQQRILLDFSKGSTSNVQQRQQQQQQQQQQQQQQQQQQQPDLSKAVSLSMGLYMGETETKVMGNDLGYPQQGQLGLSSGETDFRLLEESIANLNRSTSVPENPKSSTSATGCATPTEKEFPKTHSDASSEQQNRKSQTGTNGGSVKLYPTDQSTFDLLKDLEFSAGSPSKDTNESPWRSDLLIDENLLSPLAGEDDPFLLEGNTNEDCKPLILPDTKPKIKDTGDTILSSPSSVALPQVKTEKDDFIELCTPGVIKQEKLGPVYCQASFSGTNIIGNKMSAISVHGVSTSGGQMYHYDMNTASLSQQQDQKPVFNVIPPIPVGSENWNRCQGSGEDSLTSLGALNFPGRSVFSNGYSSPGMRPDVSSPPSSSSAATGPPPKLCLVCSDEASGCHYGVLTCGSCKVFFKRAVEGQHNYLCAGRNDCIIDKIRRKNCPACRYRKCLQAGMNLEARKTKKKIKGIQQAT
notes: domain: N-terminal half (N523)
Take B6: the binding result with GAL/STAMP(834C) is listed as “no binding”.
